Experimental data as given in the supplement of paper PMC10899765.

Columns and labels:
Details in all cases: 20 nM; 72 h
MCF10A [1] = test: one-nucleolus phenotype percent effect (relative to siNT 0% and siNOL11 100%); higher = more cells with one nucleolus (ribosome biogenesis inhibition)
Experimental: (§1)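 After 72 h, cells were fixed and stained with Hoechst and anti-fibrillarin, and nucleoli per nucleus were counted with CellProfiler. Values are plate-adjusted percent effect for the one-nucleolus and 5+ nucleoli phenotypes, normalised to siNT (0%) and to the positive controls siNOL11 or siKIF11 (100%), as the mean of biological triplicates. Percent viability is the nuclei count relative to siNT.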

MCF10A [2] = test: 5+ nucleoli phenotype percent effect (relative to siNT 0% and siKIF11 100%); higher = more cells with five or more nucleoli
Experimental: as §1

MCF10A [3] = test: percent viability (nuclei count relative to siNT); higher = more viable cells
Experimental: as §1

Row | Sequence | one-nucleolus phenotype percent effect (MCF10A [1]) [%] | 5+ nucleoli phenotype percent effect (MCF10A [2]) [%] | percent viability (MCF10A [3]) [%]
1 | UACCCUGUAGAUCCGAAUUUGUG [hsa-miR-10a-5p] | 19.4 | -19.7 | 39.9
2 | CAGCACCCUGUGGCUCCCACAG [hsa-miR-6871-3p] | -5.35 | 26.8 | 50.1
3 | UUCAACAAGGGUGUAGGAUGG [hsa-miR-7159-5p] | -19.4 | 14.1 | 105
4 | ACAGCCCAGCAGUUAUCACGGG [hsa-miR-5685] | -1.32 | -0.657 | 57.8
5 | AGGAGAAGUCGGGAAGGU [hsa-miR-5703] | -5.15 | 33.6 | 30.6
6 | CUGUAUGCCCUCACCGCUCA [hsa-miR-675-3p] | 0.624 | -14.5 | 37.8
7 | UCCCCUUCCUCCCUGCCCAG [hsa-miR-6756-3p] | -12.3 | 16.4 | 51.9
8 | UUUAGAUUGAACAUGAAGUUAG [hsa-miR-4760-5p] | -20.8 | 46.3 | 83.5
9 | CCGGCAUGUCCAGGGCA [hsa-miR-4304] | 14.3 | 3.17 | 25.4
10 | UAGGGUAGACACUGACAACGUU [hsa-miR-6755-5p] | 25 | -14.8 | 19.9
11 | ACUCUUUCCCUGUUGCACUAC [hsa-miR-130b-5p] | -13.5 | 16.1 | 54.3
12 | UUCUGCCUCUGUCCAGGUCCUU [hsa-miR-5001-3p] | 19.3 | -28.1 | 39.1
13 | UGGGAUCCAGACAGUGGGAGAA [hsa-miR-4713-3p] | -1.28 | 16.3 | 26
14 | UGCCGCCCUCUCGCUGCUCUAG [hsa-miR-4632-3p] | 7.5 | -6.54 | 64.2
15 | CUUGGGAGCCCUGUUAGACUC [hsa-miR-887-5p] | -32.3 | 76 | 176
16 | UCAGAACAAAUGCCGGUUCCCAGA [hsa-miR-589-3p] | -20.8 | 5.52 | 115
17 | UCAUAUUGCUUCUUUCU [hsa-miR-1279] | -26.6 | 35.8 | 187
18 | CGGUGAGCGCUCGCUGGC [hsa-miR-4792] | 21.1 | -30.2 | 36.6
19 | AUCCUUGCUAUCUGGGUGCUA [hsa-miR-502-5p] | 8.98 | -11.6 | 40.4
20 | ACUUUAACAUGGAAGUGCUUUC [hsa-miR-302b-5p] | -20.3 | 35.7 | 101

Row | Sequence | one-nucleolus phenotype percent effect (MCF10A [1]) [%] | 5+ nucleoli phenotype percent effect (MCF10A [2]) [%] | percent viability (MCF10A [3]) [%]
21 | AUGUGAUUGACGGCUGACUCCA [hsa-miR-8070] | 26.5 | -27.8 | 23
22 | CAACACCAGUCGAUGGGCUGU [hsa-miR-21-3p] | 35.5 | -31.2 | 52.9
23 | UGGGUGUAGGCUGGAGCUGAGG [hsa-miR-6772-5p] | 23.4 | -8.54 | 17
24 | AUGUAUGUGUGCAUGUGCAUG [hsa-miR-297] | -26.3 | 34.4 | 116
25 | UGUUUGUUGUAAGGAUCGUUGU [hsa-miR-8068] | 7.78 | -15.7 | 34.1
26 | GAGCUUGGUCUGUAGCGGUU [hsa-miR-4453] | 33.6 | -29.1 | 9.97
27 | AACAUCACAGCAAGUCUGUGCU [hsa-miR-499a-3p] | -7.15 | -38.3 | 49.3
28 | CAAAGUGCUUACAGUGCAGGUAG [hsa-miR-17-5p] | -20.9 | 27.3 | 71.5
29 | CGCGGGUCGGGGUCUGCAGG [hsa-miR-3621] | -5.2 | -3.13 | 57.8
30 | AGUGCCUGAGGGAGUAAGAGCCC [hsa-miR-550a-5p] | 7.21 | 12.6 | 47.1
31 | GCAGGGACAGCAAAGGGGUGC [hsa-miR-211-3p] | 9.24 | -20.9 | 38.3
32 | ACGUUUGAAUGCUGUACAAGGC [hsa-miR-5707] | -26.7 | 56.2 | 185
33 | AUCUGGAGGUAAGAAGCACUUU [hsa-miR-516b-5p] | -1.83 | 48.7 | 61.6
34 | UUGUGGCUGGUCAUGAGGCUAA [hsa-miR-4474-3p] | 3.27 | 22.3 | 75.4
35 | UCGUGCAUAUAUCUACCACAU [hsa-miR-4536-3p] | 2.78 | 0.0637 | 49.3
36 | AGAAGGCCUUUCCAUCUCUGU [hsa-miR-4493] | 41.7 | -36.6 | 45.9
37 | CGGGUGGGAGCAGAUCUUAUUGAG [hsa-miR-6766-5p] | -20.9 | 56.1 | 76.6
38 | UCUGCCCCCUCCGCUGCUGCCA [hsa-miR-1913] | -11.1 | 54.4 | 88.8
39 | AGCUCUAGAAAGAUUGUUGACC [hsa-miR-6502-5p] | -17.4 | 66.5 | 93.5
40 | CAGGCAGGGAGGUGGGACCAUG [hsa-miR-6808-5p] | 28.6 | -14.6 | 21.7

Row | Sequence | one-nucleolus phenotype percent effect (MCF10A [1]) [%] | 5+ nucleoli phenotype percent effect (MCF10A [2]) [%] | percent viability (MCF10A [3]) [%]
41 | AGUUUUGCAGGUUUGCAUUUCA [hsa-miR-19b-2-5p] | 21.2 | -10.8 | 96.7
42 | ACAUACUUCUUUAUAUGCCCAU [hsa-miR-1-5p] | 11.9 | -8.68 | 47
43 | CAGGGAACCAGUUGGGGCUU [hsa-miR-6822-5p] | 20.9 | -8.39 | 20.6
44 | AAGUGUGCAGGGCACUGGU [hsa-miR-648] | 40.5 | -33.3 | 20.9
45 | UGAGGUGGUAGGAUGUAGA [hsa-miR-6134] | 40.7 | -36 | 12
46 | CAAAAACCGCAAUUACUUUUGCA [hsa-miR-548h-3p] | -6.67 | -11 | 52
47 | AGCAGUGUUUGUUUUGCCCACA [hsa-miR-6499-3p] | 16.7 | -48 | 30.3
48 | AGAAGGGAAGAUGGUGAC [hsa-miR-7515] | -2.73 | 4.41 | 42.5
49 | CAGUUAUCACAGUGCUGAUGCU [hsa-miR-101-5p] | 8.44 | -23.5 | 33.9
50 | AACUGGCCUACAAAGUCCCAGU [hsa-miR-193a-3p] | 29.5 | -15.2 | 21.9
51 | AGGGAGGGUGUGGUAUGGAUGU [hsa-miR-6883-5p] | 8.82 | -4.87 | 42
52 | AUUGGGAACAUUUUGCAUGUAU [hsa-miR-450a-1-3p] | -29.7 | 24.1 | 95
53 | GGGGCGCGGCCGGAUCG [hsa-miR-3178] | -32.2 | 51.5 | 93.3
54 | UUCAACGGGUAUUUAUUGAGCA [hsa-miR-95] | -0.724 | 9.5 | 69.8
55 | AUGGGGUGAGAUGGGGAGGAGCAGC [hsa-miR-6812-5p] | 12.2 | -19.9 | 23.7
56 | AUAAUACAUGGUUAACCUCUUU [hsa-miR-655] | 4.84 | -21.2 | 118
57 | ACUCAAACUGUGGGGGCACU [hsa-miR-371a-5p] | 3.21 | 15.8 | 79.6
58 | UCACAAGGUAUUGACUGGCGUA [hsa-miR-4457] | 1.5 | -15.7 | 47.9
59 | AAUUUACUCUGCAAUCUUCUCC [hsa-miR-4699-3p] | -12.5 | -0.943 | 87.9
